This is an account of results in patent EP4582453A1 (Cichlid Inc., dated 2025).

The assay addresses T1, human CTLA-4 protein overexpressed in the HEK293 cell line (human, UniProt P16410 36-223).
T1 construct: whole, on cells; also called CTLA-4/HEK293 cell line; CTLA-4 expressing cell line
T1 sequence (looked up): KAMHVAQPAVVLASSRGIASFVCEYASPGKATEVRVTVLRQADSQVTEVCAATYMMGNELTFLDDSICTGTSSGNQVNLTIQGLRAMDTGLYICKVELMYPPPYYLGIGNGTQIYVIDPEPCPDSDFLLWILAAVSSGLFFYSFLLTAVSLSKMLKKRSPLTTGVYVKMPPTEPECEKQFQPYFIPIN
In words: cell ELISA of HA-tagged scFv extract on CTLA-4-expressing HEK293 cells, anti-HA HRP.

B1: 3E4 scFv (scFv, V domains shown)
VH: EVQLLESGGGLVQPGGSLRLSCAASGFTFSNYAMSWVRQAPGKGLEWVSVIYYDGSNKYYADSVKGRFTISRDNSKNTLYLQMNSLRAEDTAVYYCARNTYRFDYWGQGTLVTVSS
VL: QSVLTQPPSASGTPGQRVTISCSGSSSNIGNNAVTWYQQLPGTAPKLLIYSDSNRPSGVPDRFSGSKSGTSASLAISGLRSEDEADYYCGSWDSSLSGYVFGGGTKLTVL
notes: HA-tagged scFv from a synthetic human scFv phage library, tested as an E. coli extract; VH and VL form one chain in the scFv
On to B1, for which the binding result is “binds”.

B2: 4B6 scFv (scFv, V domains shown)
VH: EVQLLESGGGLVQPGGSLRLSCAASGFTFSGYSMSWVRQAPGKGLEWVSSISPSGGNTYYADSVKGRFTISRDNSKNTLYLQMNSLRAEDTAVYYCAKTSELFDYWGQGTLVTVSS
VL: QSVLTQPPSASGTPGQRVTISCTGSSSNIGSNDVNWYQQLPGTAPKLLIYNDSHRPSGVPDRFSGSKSGTSASLAISGLRSEDEADYYCGTWDYSLSAYVFGGGTKLTV
notes: HA-tagged scFv
B2: the binding result was “binds”.
